In the NTF2 design screens of Basanta et al. (2020):

Experiment: protease stability score; higher = more stable; yeast display proteolysis, trypsin and chymotrypsin;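 also: log10 excess protease needed over predicted unfolded state with 0 meaning unfolded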

Work on “DHEARKLMKRFFSAINHGDPDQIRKNVDKDVKAQVGDKTVHGREEWVKWMTRRLDEIKMHYDVTTIDVQGDKVHAQAKVRYDVDGRPITDQVTFTARIENGKITSLSLRMDPENQQKIEK” yielded a protease stability score of 1.15.

“DHEARKVVKRFWEAWETGDPEELNKQVDPNVHVQIGDTRLKGRDDVVRHLLEERHEMRVDLDSMDVKATNGQVNARATARADVNGQPVTFSMEFRFKVRNGKITHIDWQFSDEDHRKRKG” showed a protease stability score of 0.81.

Work on “DHEAVKLMERLIEALNTGDPDQLRRLADKDVRWRYGDKDVHGRESVVTQLKKRLEQSRFKVTDVDIKAQGDNVTADYRVIFEHNGKPDDVTVKVEAKVHNGRIKMMKIQTDK” yielded a protease stability score of 0.623.

In the case of “DHEDAEKMKDLLTAEQQNDPDKVKEQADPNAQFRIGDQKVHGRNQYARIVKTLMERADVHILRIDNKDHNGQVHVSIDRVIDYNGRPKRDTETATARFHNGRLKELHIQFDPKKYQELKK”, the protease stability score is reported as 0.027.

For “DHEDKERASQAIEAWNTGDPREFEKQFDPNARVHVGDRHIHGREQFEDEMKRHKDESRYEISLRNVTVDNGRIKLDVVLSVDENGRPETQHLKIDLELHNGRVVSMQFNHKK”, the protease stability score was -0.209.

Work on “DHEDLVKRFIETMKEIYHTGNFRELANLADEDVQIHVGDKTVTGREHLRKEQETTERHADHATMRVDEVEVDGDKARVVFTVTIQVNGEKRSDRLVVEFRVHNGQLRIKSMRQQ” yielded a protease stability score of 1.05.

In the case of “DHEDMEKLAKDLNKAIEQGDPDRMRDMADENVDAKIGDKVFHGDENVRKMIKSIRDHADHLRVKDWRVKGEKIVIDVHVNHNGKSAKLDLKAQAHNGTFTTLKIDPQFQRSMES”, the protease stability score is reported as -0.234.

With “DHEDRAKDMLRRYEEALKSGNPDEARKLADEDVNFNIGDKRYRGRDDLATLVKQIRDSADHISITLETFTVQGNTITMDVSVVVDVNGKHISRRYNIIAQVDNGTLKLKSVQEH” the protease stability score was -0.015.

For “DHEDRELAKEWEKALHSGDRDQVHELMDPNASVRIGDKVFTGREEVSKHLKKIKDEMRIHIHSVHLEVQNGEVDNKNDLVADVNGVPVRVTVVVRITAQNGKMKELDMRFDPRQKEQMDR”, the protease stability score was 0.093.

For “DHEEKAKKFFDDLLRAVKHNDETQLERLFDKNVRFNVGEHNFRGREEFVKMVRTMVEQVDHVTATIVSIETNGDKVNLVAQWDMSHNGNSKRIRVLVVLDDNNGRVVAREMSEK”, the protease stability score was 2.2.

“DHEELEVVKEWFDAIQKGDPKTIQELADKDAEFQIGDKTVRGREHLVETVERRKKHMEFQIRIDRMDVHGDKAVIDVTMSNKHNGQPSQDRYNVRVELHNGKIQNVDQSKRS” gave a protease stability score of -0.033.

“DHEEMEKIAEEIIDILRTNDPDQMERLADENVRVRIGDKEVHGRESVSHAAQQLHDRVDHFDLKSWRRNGDKFQFEFVEHFNGQSRNVQVEMRFENGKIRHIVYTSR” gave a protease stability score of 0.226.

For “DHEEQMEKFIKTLKKLMKNNDWETWASLADPNAEARYGDSEYHGREKIVTHMRKLQEHVDHADLKFRSVSLRNGEVTMRISFHVKVNGTDQSHEAKLVLEIDNGRAVIKKMVLD”, the protease stability score was 0.795.

For “DHEESKDIAEKAVKAIETGDPDKFVSNMDKDASARIGDKTYHGRENLRKAMEDFRNQVDHLRVQSYKVSGNTQKLDMRADFNGRTRVITVVMQMENGRVSFIRVHIE”, the protease stability score was -0.359.

“DHEETFRKLLHDLDEAMRRGDTKRIQDLADENVQLEVGDKTIHGREEFAKFWMDLQKRVDHLELHVEHIHVSGDRIRAKIVLVFHHNGQTRTRSAQVVLVQENGRNVFTKIQFN” showed a protease stability score of 1.17.

Sequence “DHEEVHKLAKKLAEAVVNGNEDRIRKFLKPDVEYKNIDEEYQGKQVAEVIVKTIKTKGVRLKVEEVKVEGDTVEAQYVFQVNGTKVTAHVRAEAKGGRVDKWQVHISDTAKKLRKEG” has a protease stability score of 1.15.

“DHEEVKEFNKTLIKILETNDSKKLHELMDPNARIQIGDKDVSGRHNIHKLAEENKRRVDHFRVSRIDYHNGKVRADFTYVVNGQKHRVDMDIDITNGKIKRIIYHQR” gave a protease stability score of 0.011.

Work on “DHEEVRQYEDAVEAEETGDKEKLQRYMDPNVKFHVGDKTLHGREDVARKQKEDRERIRIRYKSMDIKVRGDKVDFKMSFVVNHNGRPQRETRTFTIDLHNGTFKHADWKESG” yielded a protease stability score of -0.014.

Work on “DHEFAKDAKEVLEENDFEREKQLFDKDASAHIGNTTYHGHEHVQTAIDIRKKRIDHREFHSITIHGDKVDVDLIVQFNGRKIRFDLTIQVHNGRVKEIKFQATNPSQERQLDEIMS” yielded a protease stability score of 1.12.

Work on “DHEIRHFAEQVVRVLNTGDEEEIEKLFDPNARITVGDKSYHGMDDYARKVKQTRDEMRFTIDVKDLKVSGDSVSMRAHVVHDHNGTPQKDTEQREFRVQGDRVKHMDVKSDG” yielded a protease stability score of -0.395.

“DHEKNKQHVDQFNEILKNGNPDEANKLADKDVEIEVGDKRYHGHEDFRKYQEEIAEQADHVKVTEVEVDGNKANVDVVLRINGKNLRRTFLLQIHNGRLKRLSFDPDQWDKARG” showed a protease stability score of 0.91.

“DHELEELAKRFLEAVLTGDEDQLRRNMDPNVKVDVGDKTVKGREEAAREIHETVHRSRIHVNHVDFRLNNGRETMRMDVVVDHNGRPQKDTWKMNQDVQGDKVKNINFRTDG” showed a protease stability score of -0.353.

With “DHELENLVEKIMSALTRNNPEDIRSLFDPNARFNIGDKTWNGMDRYITELKKEVDEWDMSVELHSVDIQGNKASAHVEQTAHHDGEPDSFEYTMKLDFHNGKARRQRVNSRK” the protease stability score was -0.248.

With “DHELVEQLHRFWTAVDENDPDKLKENADPNAHFVIGDKTYRGREDFARTIERELDTMEMRFDTMTVTIHNGRLDAKFRYVVRHNGNPQQHKVDAKAEMSNGKIQRLNMQKRP” the protease stability score was -0.197.

“DHENKKRVEEFLKALERNDPERLNHLMDPNVNIIVGDQRFHGREDAARNMAHEQKEQRFEVEDYRISVHGDDVRVEMIVQAEINGRPFRFTLIVYARIHDGRIQTIEFRIDEDEKRRMDQ” showed a protease stability score of 0.895.

“DHEQLKNLKELLEAVQTGDEDQVKELMDPNAKFEYGNKSFHGRESMESYLKKLENEARVTVRSVTVRVSNGTISADVHLIFEVNGQPITVDAKFEAELHNGRVKHLYVRMPEETMKEIQG” showed a protease stability score of -0.312.

With “DHEREAKHFVDDWVRALRTGDSKTIEELMDPNVTLRVGDQKLHGRSQNSDQVRRWKERVDTIDVKVRSINKTGDHMRVHVDVVMDINGEKDNKELVINFDKHNGRLIVKHASYG” the protease stability score was -0.113.

“DHERILQELLDRAVKMLNTGNEEHARKLAPPHARMVVGDKTIHGMENIAHEWQKVQDRVDHVEARVHSMSVDGDKFVVIVEVTLDINGRKQTQVVTFIAVKNNGQVYVKQINIS” showed a protease stability score of -0.162.

In the case of “DHERLKEFIKIQQENNPDQLRNQMDPNVKARVGDKEFKGREQVVKWLKRIMDQADHIHYDDLKSQGNSVTINAVVEVNGKSFQYNMVVEFHNGRIREIKVEVRNHRVKEILERIEG”, the protease stability score is reported as 1.62.

“DHERLRKLAKDFVKILKHGDPDRMRELVDKDVRVQIGDKEVHGREKVDEMVENIRHRADHIDFTSFHASNGRVTVDVVVNVDGKNTRVTWRIVMSNGRVKMIQVTDG” showed a protease stability score of 1.82.

With “DHERVKDHATDLAKILRQNNERELKKLADKDVHFQIGDKTYHGREKFEEWVHELINTVDHIRITDFDVDGDRVRIDADFDINGKTVRVVIVVKLKNGKIKSQKVQFRDKDLQRKFNS” the protease stability score was -0.152.

In the case of “DHETHMEKFFEDQQKIRNKGDEDKVRNLFDPNARATYGDKTYQGREQIDKFENDVLRRVDHVNVQLRNVRVHNGRADFDARVVFKVNGRHERNHIRITVEINNGRIVIQSVHYG”, the protease stability score is reported as 0.141.

In the case of “DHETQNDLATEIVRVYKHGNPDDWSKLVDPNARVVYGDKEIHGREDAMSFMKKLRNQADSIKVKDYKVKNGRVDVVVIIVVNGRHATLQFTIQFHNGKATDVKFDPKQWHELQK”, the protease stability score is reported as 1.28.

Sequence “DHEVAKTMMEEWQKALENGDDKKLKELYDPDGEWEADDEQDQGTEVIEKLMEKVKKQGLKFQVRKAKVEGDKFTVVYDLHVGNKTATFEVEVHVEGGRIKKVKAKADEEAKKLITEG” has a protease stability score of 1.98.

“DHEVHKLFDDFLHAEETGNEEQLTELVDENAQIQVGDKEVHGRDHINKMHADLRRTMDLKLKDYKVNNNGNNVDVDMKYINEDNGKPSKVRMRAIYTFQNGRIKNVHQNRDQ” gave a protease stability score of -0.366.

“DHHARTQAEHLLEALRNGNEDQLMKLIDPNARFRYGDKEVHGSEQFREQVHTLKREIRMDVKEYRFTVEGNRLVVKVTAILDTNGKPDTRDVDNHAIVHNGKIKQFTVDNKS” gave a protease stability score of -0.134.

“DHHDRKLFKHLITALRDGDEDKVKKNVDPNVKIDIGDTTWNGREQWAKDVREKREEMRVDIKLKRLTASNGRVTAKLRVRNKHDGRPHQHEFTVEFRRSNGRWKEIHVDDDK” gave a protease stability score of -0.008.

“DHHHARELLTRVIRALITGDEKKVADQIDPNAEFQYGDKTFHGRDQVRRFVKEWKKHVDHVELKTYDARGDKAKAIFVVDHNGHKKQVVLQLKVENGRVKSIRITDG” showed a protease stability score of 1.74.

Sequence “DHKAVEMVEQMWKNLNEGDFKKFTRLIDKDVKYVYGDRRVEGREELVNRFHRKMREMRFQIVRMSLTDHGDKVVVNYTVQFNKNGRPDRKVQRLLVKVENGTIKELRVQEHQ” has a protease stability score of 1.62.

For “DHKDQSKMVKDLNRVMQHGDSKQMRSMVDENAEVQYGDNQVHGRDQIREMEKRIRRRVDKVKFDSVDVEGNKVRIQYVVNVNGQNIEQVLHVTFKNGKIKNQEYRVRDPRLEKQFKS”, the protease stability score was 0.237.

“DHKEARDVAQTMMHLLKHGDFEQIVRNADPNAHFVVGDKEYHGRDNLRKVLKRLHDQVDHISFRTYKVDEDTAKLDATVQINGRNYRMDVLVHFHNGRIKDLNIKVTDEDTQREADK” showed a protease stability score of 2.08.

For “DHKEETKKKDEARRVLETNDPRKKLKLMDPNARANVGDKRYHGREELKRRADEERKRVDHAEVKRVEANGDHIIVDFVFVVNGKTKRNSLNINMHNGRVKEVNVESR”, the protease stability score was -0.143.

With “DHKEHAEKFAQQLDEAHKKNDPRQFLRLMDKDVRVSVGDKTVHGKENIRKQLEDLTKQADSIEFKVKSIRVTGDKVRLEFEVVYRHNGRHSRQTVVMYLKLHNGRAVIKSVQVK” the protease stability score was 0.159.

Work on “DHKELKKYLEQVEKNDFDKLKKNVDEDARVNYGNKTWHGREQVQKYWDDLKKRIDHFDVTHMTVKGDKLHYIVRMNVNGQNFEHKVVIEIQNGKIKQVDARYRDEKQKEKLEKVAD” yielded a protease stability score of 0.868.

“DHKHLQEQARRLVDALVTGDPEEAANLADPNARARIGDKTIHGREQFRNAMQRFSNQADHVQVDHFTVQGDKVQVKMSINVNGQSFDVVMVARMDNGHIRHIRFDPDQIRQVQG” gave a protease stability score of 0.052.

In the case of “DHKLHHQLHRLIKALQTGDPDKIRELVDPNVEFVVGEKRYKGREDYVTDFKERLDHIRLDNDVRDVEVHGNKMRANIQTEVQDDGQPRTYQVRLDASAHNGKVKSLKVDKKP”, the protease stability score is reported as -0.059.

For “DHKQEATKNLKKFEDVMKTNDPEKAKNLADENVRVQVGDKTVHGKEKMVSTMLEEMRKVDHFSVHLQEVSFHGDKLNLSYEFVLNQNGKERKDVRVFHAANHNGRFLVEELHQG”, the protease stability score was -0.322.

For “DHNDHARRLFEQWVQAIEHNDPDQIRKNLPPNVKVTIGDKTISGRENVVRTVKRELHRVDHIRIQLDHVEVQGDKIVLRANVRQDHNGQNRHFTLRLVANTFNGREQFIDIQLN”, the protease stability score was -0.121.

With “DHQASEKLSQLWKALNTGNPEQFSKNADPHVRHHVGDTSIQGREQFNEQIKREQKEMRVQIQVQSIHVRGDKIRVRAVYTFHINGQPRKDTFVAKFVVKNGRIKKASIRIDPRKVKERNS” the protease stability score was 0.11.

For “DHQDARKVRKNFEDNNFESFKSMFDENAEVRVGDKELHGKENIRDQIRKEKEQIDHVQYRSFHVQGEKVDLKYEFQVNGRHIDVRASAELKNGRIKTHSVEVTTEEDKKLLKEVLQ”, the protease stability score was -0.271.
